Data reported in publication PMC9287160, “Structural insights into the function-modulating effects of nanobody binding to the integrin receptor αMβ2” (The Journal of Biological Chemistry, 2022).

Target: T1, recombinant human αMβ2 αI domain (human)
T1 construct: αI domain (von Willebrand factor type A domain) of integrin αM (CD11b), human; numbers count on: the mature protein; PDB 4M76 (cited) holds an αI–C3d complex of the same laboratory; also called hαI; human αI domain
T1 chain: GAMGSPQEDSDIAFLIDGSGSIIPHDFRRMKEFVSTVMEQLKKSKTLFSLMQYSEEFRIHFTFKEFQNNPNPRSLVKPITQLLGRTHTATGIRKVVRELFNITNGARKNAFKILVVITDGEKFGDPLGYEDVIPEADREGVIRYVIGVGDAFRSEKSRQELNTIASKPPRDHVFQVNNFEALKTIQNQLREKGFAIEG
Experiment: BLI; His-tagged hCD11bNb1 on anti-penta-HIS sensors; αMβ2 HP 6.25-50 nM or αI domain 0.8-25 nM in solution; 30 °C; 20 mM Hepes pH 7.5, 150 mM NaCl, 5 mM MgCl2, 1 mM CaCl2; 1:1 model; triplicates; apparent
Conditions: both partners purified

B1: nanobody hCD11bNb1 (His-tagged) (VHH)
VHH: QVQLVETGGGLVQAGGSLRLSCAASGNINSFNAMGWFRQAPGKQRELVAAITFGGRTNYADSVKGRFTISRDNTKGSVYLQMNSLKPEDTAVYYCAASENNLLTGVWHYWGRGTQVTVSS
notes: nanobody selected by phage display from a llama immunised with the αMβ2 HP; they are in PDB 7NP9 (nanobody alone) and PDB 7P2D (complex); Captured through its His tag on anti-penta-HIS BLI sensors. pET-22b(+) usually adds a C-terminal His6 (surmise); also called parental hCD11bNb1; WT hCD11bNb1
- Kd: 1 to 6 nM
